# Experimental data: patent publication US20130251724A1 (GlaxoSmithKline, published 2013)
# T1: Human OSM (human, UniProt P13725 26-221)
# T1 construct: Recombinant human OSM; also called hOSM; human Oncostatin M
# T1 sequence: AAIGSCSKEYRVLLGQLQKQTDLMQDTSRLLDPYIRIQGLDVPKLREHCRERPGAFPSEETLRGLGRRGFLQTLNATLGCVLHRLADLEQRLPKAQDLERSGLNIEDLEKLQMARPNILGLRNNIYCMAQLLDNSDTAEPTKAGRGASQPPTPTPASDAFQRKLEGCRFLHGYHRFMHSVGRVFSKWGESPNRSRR
# Biological target: T1, Human OSM
# Experiment: SPR (ProteOn XPR36 or Biacore T100), captured supernatant, OSM as analyte
# Method: The initial kinetic analyses for the CDRH3 screen were carried out on the ProteOn XPR36 (Biorad Laboratories) and certain supernatants were selected for more accurate kinetic analysis on the BiaCore T100.
# For the ProteOn analysis, anti-human IgG (GE Healthcare/Biacore BR-1008-39) was coupled to a GLM chip (Biorad Laboratories 176-5012) by primary amine coupling. The CDRH3 variants were captured directly on to this surface and recombinant human OSM was passed over the captured antibody surface at 256, 64, 16, 4 and 1 nM, with a buffer injection alone (i.e. 0 nM) used to double reference the binding curves. Following the OSM binding event, the capture surfaces were regenerated: with 3M MgCl₂ the regeneration removed the previously captured antibody ready for another cycle of capture and binding analysis. The data was then fitted to the 1:1 model (with mass transport) inherent to the ProteOn analysis software. The run was carried out using HBS-EP (Biacore/GE-Healthcare BR-1006-69) and the analysis temperature was 25° C.
# A similar method was used for analysis of constructs using the Biacore T100, anti-human IgG (GE Healthcare/Biacore BR-1008-39) was coupled to a CM5 chip (GE Healthcare/Biacore BR-1006-68) by primary amine coupling, antibodies were captured on this surface and recombinant human OSM was passed over the captured antibody surface at 256, 64, 16, 4 and 1 nM, with a buffer injection alone (i.e. 0 nM) used to double reference the binding curves. Regeneration was by using pulses of 3M 3M MgCl₂ or 100 mM phosphoric acid or using both reagents. The data was fitted to the 1:1 model inherent to the Biacore T100 analysis software. The run was carried out using HBS-EP (Biacore/GE-Healthcare BR-1006-69) and the analysis temperature was 25° C.
row,Kd [nM],Binder
1,0.576,"Pos 95 Ala (antibody, V domains shown, the same holds for f2 to f171; also called CDRH3 D95>A) VH: EVQLVESGGGLVQPGGSLRLSCAASGFTFSSYAMSWVRQAPGKGLEWVATISDGGSFTYYLDNVRGRFTISRDNAKNSLYLQMNSLRAEDTAVYYCARAVGHTTFWYFDVWGRGTLVTVSS VL: DIVMTQSPDSLAVSLGERATINCRASKSVSAAGYNFMHWYQQKPGQPPKVLIYYASNLESGVPDRFSGSGSGTDFTLTISSLQAEDVAVYYCLHSREFPFTFGGGTKVEIKR"
2,0.488,"Pos 96 Gly (antibody, V domains shown, also called CDRH3 V96>G) VH: EVQLVESGGGLVQPGGSLRLSCAASGFTFSSYAMSWVRQAPGKGLEWVATISDGGSFTYYLDNVRGRFTISRDNAKNSLYLQMNSLRAEDTAVYYCARDGGHTTFWYFDVWGRGTLVTVSS VL: DIVMTQSPDSLAVSLGERATINCRASKSVSAAGYNFMHWYQQKPGQPPKVLIYYASNLESGVPDRFSGSGSGTDFTLTISSLQAEDVAVYYCLHSREFPFTFGGGTKVEIKR"
3,0.649,"Pos 95 Met (antibody, V domains shown, also called CDRH3 D95>M) VH: EVQLVESGGGLVQPGGSLRLSCAASGFTFSSYAMSWVRQAPGKGLEWVATISDGGSFTYYLDNVRGRFTISRDNAKNSLYLQMNSLRAEDTAVYYCARMVGHTTFWYFDVWGRGTLVTVSS VL: DIVMTQSPDSLAVSLGERATINCRASKSVSAAGYNFMHWYQQKPGQPPKVLIYYASNLESGVPDRFSGSGSGTDFTLTISSLQAEDVAVYYCLHSREFPFTFGGGTKVEIKR"
4,0.57,"Pos 95 Gln (antibody, V domains shown, also called CDRH3 D95>Q) VH: EVQLVESGGGLVQPGGSLRLSCAASGFTFSSYAMSWVRQAPGKGLEWVATISDGGSFTYYLDNVRGRFTISRDNAKNSLYLQMNSLRAEDTAVYYCARQVGHTTFWYFDVWGRGTLVTVSS VL: DIVMTQSPDSLAVSLGERATINCRASKSVSAAGYNFMHWYQQKPGQPPKVLIYYASNLESGVPDRFSGSGSGTDFTLTISSLQAEDVAVYYCLHSREFPFTFGGGTKVEIKR"
5,0.499,"Pos 95 His (antibody, V domains shown, also called CDRH3 D95>H) VH: EVQLVESGGGLVQPGGSLRLSCAASGFTFSSYAMSWVRQAPGKGLEWVATISDGGSFTYYLDNVRGRFTISRDNAKNSLYLQMNSLRAEDTAVYYCARHVGHTTFWYFDVWGRGTLVTVSS VL: DIVMTQSPDSLAVSLGERATINCRASKSVSAAGYNFMHWYQQKPGQPPKVLIYYASNLESGVPDRFSGSGSGTDFTLTISSLQAEDVAVYYCLHSREFPFTFGGGTKVEIKR"
6,0.785,"Pos 95 Glu (antibody, V domains shown, also called CDRH3 D95>E) VH: EVQLVESGGGLVQPGGSLRLSCAASGFTFSSYAMSWVRQAPGKGLEWVATISDGGSFTYYLDNVRGRFTISRDNAKNSLYLQMNSLRAEDTAVYYCAREVGHTTFWYFDVWGRGTLVTVSS VL: DIVMTQSPDSLAVSLGERATINCRASKSVSAAGYNFMHWYQQKPGQPPKVLIYYASNLESGVPDRFSGSGSGTDFTLTISSLQAEDVAVYYCLHSREFPFTFGGGTKVEIKR"
7,0.517,"Pos 95 Gly (antibody, V domains shown, also called CDRH3 D95>G) VH: EVQLVESGGGLVQPGGSLRLSCAASGFTFSSYAMSWVRQAPGKGLEWVATISDGGSFTYYLDNVRGRFTISRDNAKNSLYLQMNSLRAEDTAVYYCARGVGHTTFWYFDVWGRGTLVTVSS VL: DIVMTQSPDSLAVSLGERATINCRASKSVSAAGYNFMHWYQQKPGQPPKVLIYYASNLESGVPDRFSGSGSGTDFTLTISSLQAEDVAVYYCLHSREFPFTFGGGTKVEIKR"
8,0.568,"Pos 95 Leu (antibody, V domains shown, also called CDRH3 D95>L) VH: EVQLVESGGGLVQPGGSLRLSCAASGFTFSSYAMSWVRQAPGKGLEWVATISDGGSFTYYLDNVRGRFTISRDNAKNSLYLQMNSLRAEDTAVYYCARLVGHTTFWYFDVWGRGTLVTVSS VL: DIVMTQSPDSLAVSLGERATINCRASKSVSAAGYNFMHWYQQKPGQPPKVLIYYASNLESGVPDRFSGSGSGTDFTLTISSLQAEDVAVYYCLHSREFPFTFGGGTKVEIKR"

# Biological target: T1, Human OSM
# Experiment: BIAcore kinetics, transfection supernatant
Kd [nM],koff [s⁻¹],kon [M⁻¹ s⁻¹],Binder
0.387,0.000142,368000,"Humanised 10G8 H2L2 (antibody, V domains shown) VH: EVQLVESGGGLVQPGGSLRLSCAASGFTFSNYAMSWVRQAPGKGLEWVATISDGGSFTYYLDNVRGRFTISRDNAKNSLYLQMNSLRAEDTAVYYCARDVGHTTFWYFDVWGSGTLVTVSS VL: DIVMTQSPDSLAVSLGERATINCRASKSVSAAGYNFMHWYQQKPGQPPKLLIYYASNLESGVPDRFSGSGSGTDFTLTISSLQAEDVVVYYCLHSREFPFTFGGGTKVEIK"
0.398,0.00015,376000,"Humanised 10G8 H2L3 (antibody, V domains shown) VH: EVQLVESGGGLVQPGGSLRLSCAASGFTFSNYAMSWVRQAPGKGLEWVATISDGGSFTYYLDNVRGRFTISRDNAKNSLYLQMNSLRAEDTAVYYCARDVGHTTFWYFDVWGSGTLVTVSS VL: DIVMTQSPDSLAVSLGERATINCRASKSVSAAGYNFMHWYQQKPGQPPKLLIYYASNLESGVPDRFSGSGSGTDFTLTISSLQAEDVAVYYCLHSREFPFTFGGGTNVEIK"

# The remaining lines, values behind:
Binder,Kd [nM],koff [s⁻¹],kon [M⁻¹ s⁻¹]
"Humanised 10G8 H0L0 (antibody, V domains shown) VH: EVQLVESGGGLVQPGGSLRLSCAASGFTFSNYAMSWVRQAPGKGLEWVATISDGGSFTYYLDNVRGRFTISRDNAKNSLYLQMNSLRAEDTAVYYCARDVGHTTFWYFDVWGRGTLVTVSS VL: DIVMTQSPDSLAVSLGERATINCRASKSVSAAGYNFMHWYQQKPGQPPKLLIYYASNLESGVPDRFSGSGSGTDFTLTISSLQAEDVAVYYCLHSREFPFTFGGGTKVEIK",0.435,0.00016,369000
"Humanised 10G8 H1L2 (antibody, V domains shown) VH: EMQLVESGGGLVQPGGSLRLSCAASGFTFSNYAMSWVRQAPGKGLEWVATISDGGSFTYYLDNVRGRFTISRDNAKNSLYLQMNSLRAEDTAVYYCARDVGHTTFWYFDVWGRGTLVTVSS VL: DIVMTQSPDSLAVSLGERATINCRASKSVSAAGYNFMHWYQQKPGQPPKLLIYYASNLESGVPDRFSGSGSGTDFTLTISSLQAEDVVVYYCLHSREFPFTFGGGTKVEIK",0.445,0.000163,365000
"Humanised 10G8 H1L0 (antibody, V domains shown) VH: EMQLVESGGGLVQPGGSLRLSCAASGFTFSNYAMSWVRQAPGKGLEWVATISDGGSFTYYLDNVRGRFTISRDNAKNSLYLQMNSLRAEDTAVYYCARDVGHTTFWYFDVWGRGTLVTVSS VL: DIVMTQSPDSLAVSLGERATINCRASKSVSAAGYNFMHWYQQKPGQPPKLLIYYASNLESGVPDRFSGSGSGTDFTLTISSLQAEDVAVYYCLHSREFPFTFGGGTKVEIK",0.425,0.000162,381000
"Humanised 10G8 H0L3 (antibody, V domains shown) VH: EVQLVESGGGLVQPGGSLRLSCAASGFTFSNYAMSWVRQAPGKGLEWVATISDGGSFTYYLDNVRGRFTISRDNAKNSLYLQMNSLRAEDTAVYYCARDVGHTTFWYFDVWGRGTLVTVSS VL: DIVMTQSPDSLAVSLGERATINCRASKSVSAAGYNFMHWYQQKPGQPPKLLIYYASNLESGVPDRFSGSGSGTDFTLTISSLQAEDVAVYYCLHSREFPFTFGGGTNVEIK",0.388,0.000145,374000
"Humanised 10G8 H0L2 (antibody, V domains shown) VH: EVQLVESGGGLVQPGGSLRLSCAASGFTFSNYAMSWVRQAPGKGLEWVATISDGGSFTYYLDNVRGRFTISRDNAKNSLYLQMNSLRAEDTAVYYCARDVGHTTFWYFDVWGRGTLVTVSS VL: DIVMTQSPDSLAVSLGERATINCRASKSVSAAGYNFMHWYQQKPGQPPKLLIYYASNLESGVPDRFSGSGSGTDFTLTISSLQAEDVVVYYCLHSREFPFTFGGGTKVEIK",0.375,0.000137,365000
"Humanised 10G8 H2L0 (antibody, V domains shown) VH: EVQLVESGGGLVQPGGSLRLSCAASGFTFSNYAMSWVRQAPGKGLEWVATISDGGSFTYYLDNVRGRFTISRDNAKNSLYLQMNSLRAEDTAVYYCARDVGHTTFWYFDVWGSGTLVTVSS VL: DIVMTQSPDSLAVSLGERATINCRASKSVSAAGYNFMHWYQQKPGQPPKLLIYYASNLESGVPDRFSGSGSGTDFTLTISSLQAEDVAVYYCLHSREFPFTFGGGTKVEIK",0.398,0.000145,363000
"Humanised 10G8 H1L3 (antibody, V domains shown) VH: EMQLVESGGGLVQPGGSLRLSCAASGFTFSNYAMSWVRQAPGKGLEWVATISDGGSFTYYLDNVRGRFTISRDNAKNSLYLQMNSLRAEDTAVYYCARDVGHTTFWYFDVWGRGTLVTVSS VL: DIVMTQSPDSLAVSLGERATINCRASKSVSAAGYNFMHWYQQKPGQPPKLLIYYASNLESGVPDRFSGSGSGTDFTLTISSLQAEDVAVYYCLHSREFPFTFGGGTNVEIK",0.344,0.000127,371000
